Assay results: EP2938355B1, “MONOVALENT AND MULTIVALENT LEISHMANIA VACCINES” (VIRBAC S.A., priority 2012, dated 2014)
Changes are numbered by the printed parent chain.

Assays:
Assay in all cases: Competition binding to HLA class II molecule against reference peptide
Set-up in all cases: species or system Homme
[1] = target: T1, HLA-DP401 (Homo sapiens, UniProt P04440+P20036); conditions: lower ratio = better affinity
T1 sequence (P04440 30-258): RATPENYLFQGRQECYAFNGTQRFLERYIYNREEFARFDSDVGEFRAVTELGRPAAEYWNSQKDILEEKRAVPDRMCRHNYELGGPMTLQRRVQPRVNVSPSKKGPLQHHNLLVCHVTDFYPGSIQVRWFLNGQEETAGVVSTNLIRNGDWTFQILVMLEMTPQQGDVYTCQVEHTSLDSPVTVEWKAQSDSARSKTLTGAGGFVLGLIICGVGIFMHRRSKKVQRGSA
T1 sequence (P20036 32-260 limits assumed): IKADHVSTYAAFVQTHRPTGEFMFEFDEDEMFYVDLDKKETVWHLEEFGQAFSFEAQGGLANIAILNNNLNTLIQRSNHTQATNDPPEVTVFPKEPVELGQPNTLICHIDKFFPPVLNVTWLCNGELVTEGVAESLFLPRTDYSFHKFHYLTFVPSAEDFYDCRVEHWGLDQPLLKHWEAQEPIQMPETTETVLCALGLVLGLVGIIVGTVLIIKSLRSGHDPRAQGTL
Excerpt: (§1) Les tableaux 7 et 8 ci-dessous représentent la concentration en peptide compétiteur (nM) (SEQ ID N°9 ou SEQ ID N°10) pour laquelle 50% de la liaison du peptide de référence aux molécules HLA-DRB1 et aux molécules HLADRB3, -DRB4, -DRB5 et HLA-DP4, est inhibée (IC50).
(§2) Pour chacun des tableaux 7 et 8, les résultats sont issus de deux expériences indépendantes. Tableau 7 :
(§3) Comme pour les résultats présentés ci-dessus, le tableau 8 illustre l'ensemble des valeurs d'IC50 obtenues pour les deux peptides testés et leur peptide de référence comme contrôle interne, pour la liaison aux molécules HLA-DRB3, -DRB4, -DRB5 et aux molécules HLA-DP401 et -DP402. Tableau 8 =:
(§4) Le tableau 9 ci-dessous illustre l'activité relative des deux composés peptidiques SEQ ID N°9 et 10 pour les molécules HLA-DR, HLA-DRB et HLA-DP4 étudiées. L'activité relative est calculée à partir des deux tableaux 7 et 8 ci-dessus de la façon suivante : Ratio = (moyenne des valeurs d'IC50 obtenues pour le peptide testé)/(moyenne des valeurs d'IC50 obtenues avec le peptide de référence). Tableau 9 :
(§5) Dans ce tableau 9, l'activité relative est définie par le ratio obtenu entre la moyenne des IC50 calculée avec le peptide compétiteur et la moyenne des IC50 calculée avec le peptide de référence. L'activité relative permet ainsi de comparer les propriétés de liaison du peptide testé à celle du peptide de référence qui correspond au peptide qui lie de façon la plus efficace une molécule HLA donnée. Ainsi, une activité relative de 2 signifie que le peptide testé lie 2 fois moins efficacement la molécule HLA étudiée que le peptide de référence. Ainsi, plus le ratio est faible, meilleure est l'affinité du peptide pour la molécule HLA considérée.

[2] = target: HLA-DRB3 (Homo sapiens, UniProt P01903+P79483); conditions: for activité relative (ratio moyenne IC50 peptide testé / moyenne IC50 peptide de référence): DRB3, lower ratio = better affinity; for affinité de liaison (in words): HLADRB3
Excerpt: as §1, §2, §3, §4, §5

[3] = target: HLA-DRB4 (Homo sapiens, UniProt P01903+P13762); conditions: lower ratio = better affinity
Excerpt: as §1, §2, §3, §4, §5

[4] = target: T2, HLA-DP402 (Homo sapiens, UniProt P04440+P20036, A65V/A84D/A85E); conditions: lower ratio = better affinity
T2 sequence (P04440 30-258 A65V/A84D/A85E): T1 sequence (P04440 30-258) with A36V, A55D, A56E
T2 sequence (P20036 29-260): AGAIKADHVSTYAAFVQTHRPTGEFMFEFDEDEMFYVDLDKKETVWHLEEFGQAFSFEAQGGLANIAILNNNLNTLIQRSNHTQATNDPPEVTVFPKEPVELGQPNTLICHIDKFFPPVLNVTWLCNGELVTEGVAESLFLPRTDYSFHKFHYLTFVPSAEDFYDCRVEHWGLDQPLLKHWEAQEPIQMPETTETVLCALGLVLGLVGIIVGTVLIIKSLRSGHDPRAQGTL
Excerpt: as §1, §2, §3, §4, §5

[5] = target: HLA-DRB5 (Homo sapiens, UniProt P01903+Q30154); conditions: for activité relative (ratio moyenne IC50 peptide testé / moyenne IC50 peptide de référence): lower ratio = better affinity
Excerpt: as §1, §2, §3, §4, §5

[6] = target: HLA-DR7 (Homo sapiens, UniProt P01903+P01911); conditions: for activité relative (ratio moyenne IC50 peptide testé / moyenne IC50 peptide de référence): DR7, lower ratio = better affinity
Excerpt: as §1, §2
(§6) Les valeurs indiquées correspondent aux IC50 obtenus pour chaque peptide étudié.
(§7) Plus la valeur de l'IC50 est faible, meilleure est l'affinité du peptide pour la molécule HLA étudiée. Ainsi, il est important de noter que les peptides de référence n'ont pas tous la même capacité de liaison selon la molécule HLA considérée. Ces valeurs correspondent aux valeurs standards attendues.
as §4, §5

[7] = target: HLA-DR1 (Homo sapiens, UniProt P01903+P01911); conditions: for activité relative (ratio moyenne IC50 peptide testé / moyenne IC50 peptide de référence): DR1, lower ratio = better affinity
Excerpt: as §1, §2, §6, §7, §4, §5

[8] = target: HLA-DR11 (Homo sapiens, UniProt P01903+P01911); conditions: lower ratio = better affinity
Excerpt: as §1, §2, §6, §7, §4, §5

[9] = target: HLA-DR13 (Homo sapiens, UniProt P01903+P01911); conditions: lower ratio = better affinity
Excerpt: as §1, §2, §6, §7, §4, §5

[10] = target: HLA-DR4 (Homo sapiens, UniProt P01903+P01911); conditions: lower ratio = better affinity
Excerpt: as §1, §2, §6, §7, §4, §5

[11] = target: HLA-DR15 (Homo sapiens, UniProt P01903+P01911); conditions: lower ratio = better affinity
Excerpt: as §1, §2, §6, §7, §4, §5

[12] = target: HLA-DR3 (Homo sapiens, UniProt P01903+P01911); conditions: for activité relative (ratio moyenne IC50 peptide testé / moyenne IC50 peptide de référence): lower ratio = better affinity; for affinité de liaison (in words): HLA-DR3
Excerpt: as §1, §2, §6, §7, §4, §5

Substance	activité relative (ratio moyenne IC50 peptide testé / moyenne IC50 peptide de référence) [1]	activité relative (ratio moyenne IC50 peptide testé / moyenne IC50 peptide de référence) [2]	affinité de liaison (in words) [2]	activité relative (ratio moyenne IC50 peptide testé / moyenne IC50 peptide de référence) [3]	activité relative (ratio moyenne IC50 peptide testé / moyenne IC50 peptide de référence) [4]	affinité de liaison (in words) [5]	activité relative (ratio moyenne IC50 peptide testé / moyenne IC50 peptide de référence) [5]	activité relative (ratio moyenne IC50 peptide testé / moyenne IC50 peptide de référence) [6]	affinité de liaison (in words) ([6]; HLA-DR7)	activité relative (ratio moyenne IC50 peptide testé / moyenne IC50 peptide de référence) [7]	affinité de liaison (in words) ([7]; HLA-DR1)	activité relative (ratio moyenne IC50 peptide testé / moyenne IC50 peptide de référence) [8]	activité relative (ratio moyenne IC50 peptide testé / moyenne IC50 peptide de référence) [9]	activité relative (ratio moyenne IC50 peptide testé / moyenne IC50 peptide de référence) [10]	activité relative (ratio moyenne IC50 peptide testé / moyenne IC50 peptide de référence) [11]	activité relative (ratio moyenne IC50 peptide testé / moyenne IC50 peptide de référence) ([12]; DR3)	affinité de liaison (in words) [12]	IC50 ([12]; DR3, two independent experiments, one line each, read-out: IC50 (concentration en peptide compétiteur pour laquelle 50% de la liaison du peptide de référence est inhibée)) [nM]
TNTLAVLQAFGRAIPELGKKW (TNTLAVLQAFGRAIPELGKKW) [SEQ ID N°9]	>3727	>274	n'est pas actif	1331	>2222	affinité de liaison élevée	0,9	3	affinité de liaison élevée	1	affinité de liaison élevée	3	41	2	5	>187	n'est pas actif	
EGYFVTDEKTGLVYRDGGVAAASSG (EGYFVTDEKTGLVYRDGGVAAASSG) [SEQ ID N°10]	5556	5	bonne affinité de liaison	>9535	2000		688	928		271		3	18	2	1	0,2	bonne affinité de liaison	35
